Columns and labels:
Experiment in all cases: SPR
[1] = biological target: T1, Human TRAIL-R2 ectodomain (residues 58–184), released from the Fc fusion (human, UniProt O14763 58-184, selenomethionine (only in the labelled complex of the derivative crystals)); conditions: both partners purified
T1 construct: also called DR5; TRAIL-R2 receptor; not shown: Fc (human IgG1), C-terminal, cleaved

[2] = biological target: T2, TRAIL (TNF-related apoptosis inducing ligand) ectodomain (UniProt P50591 39-281); conditions: one partner purified
T2 construct: also called TNFSF10; Apo2L

[3] = biological target: T3, TRAIL (TNF-related apoptosis inducing ligand) ectodomain (UniProt P50591 39-281); conditions: one partner purified; remark: listed apart in the source
T3 construct: also called TNFSF10; Apo2L

Row | Binder | Kd [2] [nM] | koff [2] [s⁻¹] | kon [2] [M⁻¹ s⁻¹] | other results
1 | UL141-Fc fusion protein (Fc fusion) DIAEKMWAENYETTSPAPVLVAEGEQVTIPCTVMTHSWPMVSIRARFCRSHDGSDELILDAVKGHRLMNGLQYRLPYATWNFSQLHLGQIFSLTFNVSTDTAGMYECVLRNYSHGLIMQRFVILTQLETLSRPDEPCCTPALGRYSLGDQIWSPTPWRLRNHDCGMYRGFQRNYFYIGRADAEDCWKPACPDEEPDRCWTVIQRYRLPGDCYRSQPHPPKFLPVTPAPPADIDTGMS | – | – | – | Kd [1]: 21.4 nM; koff [1]: 0.00564 s⁻¹; kon [1]: 264000 M⁻¹ s⁻¹
2 | human TRAIL-R2-Fc D148A (Fc fusion, source: Sf9 insect cells, culture supernatant; not shown: Fc (human IgG1), C-terminal, kept) QQDLAPQQRAAPQQKRSSPSEGLCPPGHHISEDGRDCISCKYGQDYSTHWNDLLFCLRCTRCDSGEVELSPCTTTRNTVCQCEEGTFREEASPEMCRKCRTGCPRGMVKVGDCTPWSDIECVHKESG | 4.48 | 3.58e-05 | 8000 | –
3 | human TRAIL-R2-Fc M152A (Fc fusion, source: Sf9 insect cells, culture supernatant; not shown: Fc (human IgG1), C-terminal, kept) QQDLAPQQRAAPQQKRSSPSEGLCPPGHHISEDGRDCISCKYGQDYSTHWNDLLFCLRCTRCDSGEVELSPCTTTRNTVCQCEEGTFREEDSPEACRKCRTGCPRGMVKVGDCTPWSDIECVHKESG | 202 | 0.000678 | 3350 | –
4 | human TRAIL-R2-Fc P150A (Fc fusion, source: Sf9 insect cells, culture supernatant; not shown: Fc (human IgG1), C-terminal, kept) QQDLAPQQRAAPQQKRSSPSEGLCPPGHHISEDGRDCISCKYGQDYSTHWNDLLFCLRCTRCDSGEVELSPCTTTRNTVCQCEEGTFREEDSAEMCRKCRTGCPRGMVKVGDCTPWSDIECVHKESG | 4.29 | 9.02e-06 | 2100 | –
5 | human TRAIL-R2-Fc K155A (Fc fusion, source: Sf9 insect cells, culture supernatant; not shown: Fc (human IgG1), C-terminal, kept) QQDLAPQQRAAPQQKRSSPSEGLCPPGHHISEDGRDCISCKYGQDYSTHWNDLLFCLRCTRCDSGEVELSPCTTTRNTVCQCEEGTFREEDSPEMCRACRTGCPRGMVKVGDCTPWSDIECVHKESG | 39.7 | 0.000138 | 3480 | –
6 | Human TRAIL-R2-Fc M152A (Fc fusion, also called TRAIL-R2 M152A mutant; source: Sf9, culture supernatant used for SPR; not shown: Fc (human IgG1), C-terminal, kept) QQDLAPQQRAAPQQKRSSPSEGLCPPGHHISEDGRDCISCKYGQDYSTHWNDLLFCLRCTRCDSGEVELSPCTTTRNTVCQCEEGTFREEDSPEACRKCRTGCPRGMVKVGDCTPWSDIECVHKESG | – | – | – | Kd [3]: 202 nM
7 | Human TRAIL-R2-Fc K155A (Fc fusion, source: Sf9, culture supernatant used for SPR; not shown: Fc (human IgG1), C-terminal, kept) QQDLAPQQRAAPQQKRSSPSEGLCPPGHHISEDGRDCISCKYGQDYSTHWNDLLFCLRCTRCDSGEVELSPCTTTRNTVCQCEEGTFREEDSPEMCRACRTGCPRGMVKVGDCTPWSDIECVHKESG | – | – | – | Kd [3]: 40 nM
